Data reported in PMC9098222.

Molecular target: PIK3R2/p85β (UniProt O00459)
Assay: anti-Myc IP, PIK3R2 immunoblot
Settings: reference: Myc-IRS4 wild type; sites Y779

IRS4 (insulin receptor substrate 4) (from UniProt O14654) Myc-IRS4 Y779F
binding against the reference: weaker
